For the test, the target named is T1, MDGA1 (human, UniProt Q8NFP4, biotinylated).
T1 construct: extracellular domain; also called MAM domain-containing glycosylphosphatidylinositol anchor protein 1; soluble query
T1 sequence (soluble query ectodomain, looked up): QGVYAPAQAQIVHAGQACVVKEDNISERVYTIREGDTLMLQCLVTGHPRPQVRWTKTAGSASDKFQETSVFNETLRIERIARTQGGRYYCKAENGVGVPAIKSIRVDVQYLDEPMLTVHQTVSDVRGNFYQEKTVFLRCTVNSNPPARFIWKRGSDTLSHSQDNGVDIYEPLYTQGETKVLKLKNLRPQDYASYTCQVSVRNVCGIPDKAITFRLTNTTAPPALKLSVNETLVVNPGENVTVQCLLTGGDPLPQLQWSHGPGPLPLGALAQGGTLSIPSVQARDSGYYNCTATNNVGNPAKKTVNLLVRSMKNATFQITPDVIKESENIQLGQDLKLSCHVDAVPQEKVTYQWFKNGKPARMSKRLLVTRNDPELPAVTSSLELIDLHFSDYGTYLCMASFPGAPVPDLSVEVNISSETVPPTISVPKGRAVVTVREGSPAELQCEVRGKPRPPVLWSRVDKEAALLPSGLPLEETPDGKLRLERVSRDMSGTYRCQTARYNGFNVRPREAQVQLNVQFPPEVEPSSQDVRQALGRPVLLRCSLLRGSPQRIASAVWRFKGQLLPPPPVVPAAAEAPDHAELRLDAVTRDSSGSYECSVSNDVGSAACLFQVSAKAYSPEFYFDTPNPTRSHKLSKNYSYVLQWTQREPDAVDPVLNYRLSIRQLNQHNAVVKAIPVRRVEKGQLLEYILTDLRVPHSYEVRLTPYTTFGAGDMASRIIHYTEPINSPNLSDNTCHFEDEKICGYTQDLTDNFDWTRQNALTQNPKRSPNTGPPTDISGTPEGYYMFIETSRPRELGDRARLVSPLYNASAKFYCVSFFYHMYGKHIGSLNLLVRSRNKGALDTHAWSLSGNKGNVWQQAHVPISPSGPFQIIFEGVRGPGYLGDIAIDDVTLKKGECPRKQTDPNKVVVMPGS
The test is described as follows: cell surface interaction assay: query ECD tetramerised with fluorescent streptavidin on transfected cells, immunofluorescence.

B1: NLGN3 (receptor, human, UniProt Q9NZ94 38-848, looked up)
cell-surface-expressed binding partner: QAPAPTVNTHFGKLRGARVPLPSEILGPVDQYLGVPYAAPPIGEKRFLPPEPPPSWSGIRNATHFPPVCPQNIHTAVPEVMLPVWFTANLDIVATYIQEPNEDCLYLNVYVPTEDVKRISKECARKPNKKICRKGGSGAKKQGEDLADNDGDEDEDIRDSGAKPVMVYIHGGSYMEGTGNMIDGSILASYGNVIVITLNYRVGVLGFLSTGDQAAKGNYGLLDQIQALRWVSENIAFFGGDPRRITVFGSGIGASCVSLLTLSHHSEGLFQRAIIQSGSALSSWAVNYQPVKYTSLLADKVGCNVLDTVDMVDCLRQKSAKELVEQDIQPARYHVAFGPVIDGDVIPDDPEILMEQGEFLNYDIMLGVNQGEGLKFVEGVVDPEDGVSGTDFDYSVSNFVDNLYGYPEGKDTLRETIKFMYTDWADRDNPETRRKTLVALFTDHQWVEPSVVTADLHARYGSPTYFYAFYHHCQSLMKPAWSDAAHGDEVPYVFGVPMVGPTDLFPCNFSKNDVMLSAVVMTYWTNFAKTGDPNKPVPQDTKFIHTKANRFEEVAWSKYNPRDQLYLHIGLKPRVRDHYRATKVAFWKHLVPHLYNLHDMFHYTSTTTKVPPPDTTHSSHITRRPNGKTWSTKRPAISPAYSNENAQGSWNGDQDAGPLLVENPRDYSTELSVTIAVGASLLFLNVLAFAALYYRKDKRRQEPLRQPSPQRGAGAPELGAAPEEELAALQLGPTHHECEAGPPHDTLRLTALPDYTLTLRRSPDDIPLMTPNTITMIPNSLVGLQTLHPYNTFAAGFNSTGLPHSHSTTRV
notes: expressed on cells; also called NLGN3 expressed on cells
With B1, the binding result is “binds”.

(Values after patent publication US20220119490A1 (Genentech, published 2022).)
